Assay results from patent US20100183520A1.

Biological target: UNC5B netrin-1 receptor on mouse leukocytes / CD4+ T cells (mouse) (UniProt Q8K1S3)
Assay: cell-based or functional assay

UniProt Q8K1S3, sequence (Q8K1S3 27-945): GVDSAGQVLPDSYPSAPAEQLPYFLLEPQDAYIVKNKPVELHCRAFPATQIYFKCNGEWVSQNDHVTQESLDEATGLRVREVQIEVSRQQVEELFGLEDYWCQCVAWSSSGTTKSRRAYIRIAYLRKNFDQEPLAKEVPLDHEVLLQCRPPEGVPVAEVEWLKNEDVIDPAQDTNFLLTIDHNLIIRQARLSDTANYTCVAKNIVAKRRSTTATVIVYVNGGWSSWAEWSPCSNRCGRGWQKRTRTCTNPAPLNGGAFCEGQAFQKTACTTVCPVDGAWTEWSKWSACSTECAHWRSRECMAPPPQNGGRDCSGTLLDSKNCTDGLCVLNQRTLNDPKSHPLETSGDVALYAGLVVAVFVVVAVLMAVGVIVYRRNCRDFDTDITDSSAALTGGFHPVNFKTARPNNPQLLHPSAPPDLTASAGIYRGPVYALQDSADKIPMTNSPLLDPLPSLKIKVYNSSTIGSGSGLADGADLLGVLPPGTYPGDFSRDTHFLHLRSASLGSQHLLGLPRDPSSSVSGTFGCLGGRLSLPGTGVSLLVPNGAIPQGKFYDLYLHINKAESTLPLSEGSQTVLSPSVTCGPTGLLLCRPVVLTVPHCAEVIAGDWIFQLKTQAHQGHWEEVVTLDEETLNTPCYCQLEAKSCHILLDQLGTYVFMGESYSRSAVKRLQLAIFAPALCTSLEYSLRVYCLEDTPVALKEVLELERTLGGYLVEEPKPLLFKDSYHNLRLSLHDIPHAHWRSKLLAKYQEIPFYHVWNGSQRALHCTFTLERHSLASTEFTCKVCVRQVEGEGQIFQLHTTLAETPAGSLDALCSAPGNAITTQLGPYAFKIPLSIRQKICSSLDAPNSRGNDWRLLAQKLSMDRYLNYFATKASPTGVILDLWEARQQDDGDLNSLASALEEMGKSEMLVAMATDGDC

## recombinant netrin-1 (R&D Systems) (ligand)
  inhibition of anti-CD3 stimulated cytokine production in CD4+CD25- T cells: netrin-1 concentration with maximal inhibition: 500 ng/mL
  inhibition of anti-CD3 stimulated cytokine production in CD4+CD25- T cells: netrin-1 concentration with minimal effect: 100 ng/mL
